Measured values: IntAct's records for PubMed 19561611

B1: Hedgehog-interacting protein (Homo sapiens), Q96QV1-1 (parent)
chain: MLKMLSFKLLLLAVALGFFEGDAKFGERNEGSGARRRRCLNGNPPKRLKRRDRRMMSQLELLSGGEMLCGGFYPRLSCCLRSDSPGLGRLENKIFSVTNNTECGKLLEEIKCALCSPHSQSLFHSPEREVLERDLVLPLLCKDYCKEFFYTCRGHIPGFLQTTADEFCFYYARKDGGLCFPDFPRKQVRGPASNYLDQMEEYDKVEEISRKHKHNCFCIQEVVSGLRQPVGALHSGDGSQRLFILEKEGYVKILTPEGEIFKEPYLDIHKLVQSGIKGGDERGLLSLAFHPNYKKNGKLYVSYTTNQERWAIGPHDHILRVVEYTVSRKNPHQVDLRTARVFLEVAELHRKHLGGQLLFGPDGFLYIILGDGMITLDDMEEMDGLSDFTGSVLRLDVDTDMCNVPYSIPRSNPHFNSTNQPPEVFAHGLHDPGRCAVDRHPTDININLTILCSDSNGKNRSSARILQIIKGKDYESEPSLLEFKPFSNGPLVGGFVYRGCQSERLYGSYVFGDRNGNFLTLQQSPVTKQWQEKPLCLGTSGSCRGYFSGHILGFGEDELGEVYILSSSKSMTQTHNGKLYKIVDPKRPLMPEECRATVQPAQTLTSECSRLCRNGYCTPTGKCCCSPGWEGDFCRTAKCEPACRHGGVCVRPNKCLCKKGYLGPQCEQVDRNIRRVTRAGILDQIIDMTSYLLDLTSYIV

Variants of: B1
Conditions: with shh_mouse Shh

**Q.** With D383R as the variant, how does the “effect of a mutation on the interaction” value read?
**A.** disrupting interaction strength

**Q.** With D383A as the variant, how does the “effect of a mutation on the interaction” value read?
**A.** disrupting interaction strength
